In test [1] the target is SLX1 endogenous in Xenopus egg extract (Xenopus laevis (endogenous in Xenopus egg extract)) (UniProt Q0IH86). As to the kind of experiment: co-depletion by immunodepletion.
The target in test [2] is SLX4 endogenous in Xenopus egg extract (Xenopus laevis (endogenous in Xenopus egg extract)). As to the kind of experiment: co-depletion by immunodepletion.

Sequence of UniProt Q0IH86 (Q0IH86 whole entry): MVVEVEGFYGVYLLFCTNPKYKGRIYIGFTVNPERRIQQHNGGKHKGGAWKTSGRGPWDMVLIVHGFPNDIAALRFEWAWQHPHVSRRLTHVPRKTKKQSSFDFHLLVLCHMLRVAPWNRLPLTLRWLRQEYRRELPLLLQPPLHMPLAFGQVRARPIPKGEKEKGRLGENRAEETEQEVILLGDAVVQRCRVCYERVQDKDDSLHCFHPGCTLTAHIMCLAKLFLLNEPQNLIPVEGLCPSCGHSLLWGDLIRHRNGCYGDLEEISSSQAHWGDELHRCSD

“SLX4 endogenous in Xenopus egg extract (natural protein)”: in test [1], the percent co-depleted was determined as 90%.
As to “XPF-ERCC1 endogenous in Xenopus egg extract (complex)”, the percent co-depleted in test [2] and in test [1] was 50% in each case.

These data come from PMC6411836.
